13 substances from publication PMC5814800 can be followed below.

The assay deals with T25-ϕC31 gp3 (wild type) fusion protein. Description: bacterial two-hybrid (B2H) β-galactosidase assay. As to conditions: parent: est. 0.14; read off a plot.
In the case of “wild-type ϕC31 integrase fused to T18 (Int-T18 fusion, pEY111) (from UniProt Q9T221) I420A”, the response (ΔOD420/min/ml) is 0.019.

Regarding “wild-type ϕC31 integrase fused to T18 (Int-T18 fusion, pEY111) (from UniProt Q9T221) I420A; I582T”, the response (ΔOD420/min/ml) was -0.009. “wild-type ϕC31 integrase fused to T18 (Int-T18 fusion, pEY111) (from UniProt Q9T221) I420A; I582V”: the response (ΔOD420/min/ml) is -0.016. As for “wild-type ϕC31 integrase fused to T18 (Int-T18 fusion, pEY111) (from UniProt Q9T221) I420V”, the response (ΔOD420/min/ml) amounted to 0.13. Take “wild-type ϕC31 integrase fused to T18 (Int-T18 fusion, pEY111) (from UniProt Q9T221) I420V; I582V”: the response (ΔOD420/min/ml) was 0.021. Consider “wild-type ϕC31 integrase fused to T18 (Int-T18 fusion, pEY111) (from UniProt Q9T221) I582A”, for which the response (ΔOD420/min/ml) is 0.027.

In the case of “wild-type ϕC31 integrase fused to T18 (Int-T18 fusion, pEY111) (from UniProt Q9T221) I582G”, the response (ΔOD420/min/ml) was found to be 0.037.

Turning to “wild-type ϕC31 integrase fused to T18 (Int-T18 fusion, pEY111) (from UniProt Q9T221) I582L”, the response (ΔOD420/min/ml) came to 0.15. Consider “wild-type ϕC31 integrase fused to T18 (Int-T18 fusion, pEY111) (from UniProt Q9T221) I582T”, for which the response (ΔOD420/min/ml) was determined as 0.068. The figure for “wild-type ϕC31 integrase fused to T18 (Int-T18 fusion, pEY111) (from UniProt Q9T221) I582V” is 0.1. Turning to “wild-type ϕC31 integrase fused to T18 (Int-T18 fusion, pEY111) (from UniProt Q9T221) W526A”, the response (ΔOD420/min/ml) was 0.023. As to “wild-type ϕC31 integrase fused to T18 (Int-T18 fusion, pEY111) (from UniProt Q9T221) W526F”, the response (ΔOD420/min/ml) was found to be 0.21. As for “wild-type ϕC31 integrase fused to T18 (Int-T18 fusion, pEY111) (from UniProt Q9T221) W526R”, the figure is 0.008.
